From CN107236025A, “与cd56分子特异性结合的多肽及其应用” (GUANGZHOU YIDAI PHARMACEUTICAL TECHNOLOGY Co Ltd, priority 2017, dated 2017)

B1: SSVYCKQTNKKKRKERKRDTGMKGDIIGTGVNDLAPLRGPIKASTMVAVAQDMAGTGADFLFL (peptide)
chain: SSVYCKQTNKKKRKERKRDTGMKGDIIGTGVNDLAPLRGPIKASTMVAVAQDMAGTGADFLFL

Experiments:
[1] = tested on: U2 OS细胞; assay: Cytotoxicity test (CCK8) on U2 OS cells; assay type: cell-based; details: 0.1-100 μg/ml peptide, 72 h; versus medium without peptide; Fig. 5
[2] = In vivo metabolism and distribution in mouse by fluorescence imaging; set-up: species or system 小鼠
[3] = female mouse, tail vein, 400 ul of 1 mg/ml, Fig. 7

Molecule | Toxicity to U2 OS cells (cell viability, CCK8) [1] | Distribution of peptide fluorescence after 1 h [2, 3] | Distribution of peptide fluorescence after 3.5 h [2, 3] | Route of metabolism ([2]; female mouse, tail vein, concluded from fluorescence imaging) | Peptide residue in liver, spleen, lung and kidney (frozen sections, confocal) ([2]; mouse, after 3.5 h of imaging, Fig. 8)
SSVLTKWYLVCWSLGESISNERRKNFHLVGHWGCLRKLTFVVE [7号多肽] | 没有毒性作用 | – | – | – | –
B1 | 没有毒性作用 | 逐渐富集到小鼠肝、肾和肠 | 只留存于肝脏和肠腔 | 主要经过肝脏代谢 | 各个脏器均有少量的多肽残留
